Results as given in publication doi:10.1101/2020.05.08.083964 (bioRxiv, 2020).

Key:
[1] = molecular target: T1, extracellular domain of the SARS-CoV-2 S protein (S-ECD) (SARS-CoV-2, Wuhan-Hu-1); assay: cell-based or functional assay
[2] = molecular target: T1, extracellular domain of the SARS-CoV-2 …; assay: BLI
[3] = molecular target: S-ECD of SARS-CoV-2 (cryo-EM sample) (SARS-CoV-2, Wuhan-Hu-1); assay: cryo-EM structure

B1: 4A8 (antibody, V domains shown)
VH: EVQLVESGAEVKKPGASVKVSCKVSGYTLTELSMHWVRQAPGKGLEWMGGFDPEDGETMYAQKFQGRVTMTEDTSTDTAYMELSSLRSEDTAVYYCATSTAVAGTPDLFDYYYGMDVWGQGTTVTVSS
VL: EIVMTQSPLSSPVTLGQPASISCRSSQSLVHSDGNTYLSWLQQRPGQPPRLLIYKISNRFSGVPDRFSGSGAGTDFTLKISRVEAEDVGVYYCTQATQFPYTFGQGTKVDIK
For B1, the “neutralization of live (authentic) SARS-CoV-2 in Vero-E6 cells, EC50” value [1] was 0.607 µg/mL, the Kd [2] was < 2.14 nM and the “stoichiometry N” value [3] was 3.
